We go through 19 molecules from paper PMC314469, “Protein Interaction Networks by Proteome Peptide Scanning” (PLoS Biology, 2004).

Common to all, as to experiment: SPOT array
The target of assay [1] is T1, Boi2 SH3 (BOI2_YEAST), P39969.
T1 chain: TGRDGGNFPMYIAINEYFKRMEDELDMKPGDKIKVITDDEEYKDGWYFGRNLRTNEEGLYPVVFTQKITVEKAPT

The target of assay [2] is T2, Yhr016c SH3 (YSC84_YEAST), P32793.
T2 chain: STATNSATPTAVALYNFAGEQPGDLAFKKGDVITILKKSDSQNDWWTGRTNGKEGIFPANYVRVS

The target in assay [3] is T3, Rvs167 SH3 (RV167_YEAST), P39743.
T3 chain: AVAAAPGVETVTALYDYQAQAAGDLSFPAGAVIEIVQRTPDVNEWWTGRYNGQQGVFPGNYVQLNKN

The target of assay [4] is T4, Yfr024 SH3 (LSB3_YEAST), P43603.
T4 chain: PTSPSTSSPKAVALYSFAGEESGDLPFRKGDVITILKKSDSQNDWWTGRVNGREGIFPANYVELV

Assay [5] deals with T5, Boi1 SH3 (BOI1_YEAST), P38041.
T5 chain: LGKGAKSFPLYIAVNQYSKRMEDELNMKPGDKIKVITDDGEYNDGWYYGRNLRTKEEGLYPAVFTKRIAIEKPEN

NSLPSSPKKQPARN [YCL063W 173-186]: the normalised SPOT signal, Boehringer light units (BLU); mean over the file's lines of this peptide in assay [1] was 31.8; in assay [2] it was 199; in assay [3] it was 211; in assay [4], 331; in assay [5], 57.1.
In the same order, the values of NSNPIDPLRSDRSV [YNL144C 502-515] are 45.3, 67.7, 22.8, 301 and 274.
In the same order, the values of NSRPQQPERRRFNS [YOR042W 296-309] are 2470, 14500, 3880, 40900 and 7150.
In the same order, the values of NNGPKIPQKNTIDS [YKR029C 581-594] are 27.3, 74.1, 26.5, 424 and 44.6.
In the case of NQAPLEPLKPTATG [YIR006C 229-242], the normalised SPOT signal, Boehringer light units (BLU); mean over the file's lines of this peptide in assay [1] was found to be 14.5; in assay [2] it was 208; in assay [3], 37.7; in assay [4], 25.1; in assay [5], 115.
In the same order, the values of NNNPVPPQKINQPP [YDL203C 198-211] are 43.4, 20.2, 46.9, 212 and 21.2.
In the same order, the values of NTVPSTPSRSNSVL [YKL038W 137-150] are 46.6, 9290, 387, 26300 and 45.3.
In the same order, the values of NVQPRKPSRVHSRN [YFR022W 634-647] are 1310, 5260, 1900, 19900 and 899.
As for NSPPVYPKRIRHFE [YDR061W 22-35], the normalised SPOT signal, Boehringer light units (BLU); mean over the file's lines of this peptide in assay [1] amounted to 3110; in assay [2], 22100; in assay [3], 3590; in assay [4], 23100; in assay [5] it was 8630.
In the same order, the values of NYIPPDPPKDIQLN [YBR216C 239-252] are 40.9, 79.4, 176, 254 and 182.
NYAPRLPRRETSSS [YIL061C 231-244]: the normalised SPOT signal, Boehringer light units (BLU); mean over the file's lines of this peptide in assay [1] is 4640; in assay [2], 50300; in assay [3] it was 28000; in assay [4] it was 29100; in assay [5], 3860.
Regarding NSSPMSPLKEKYVL [YOR299W 430-443], the normalised SPOT signal, Boehringer light units (BLU); mean over the file's lines of this peptide in assay [1] is 65.1; in assay [2], 442; in assay [3], 69.2; in assay [4] it was 282; in assay [5], 42.6.
In the same order, the values of NVDPASPWRHELLS [YGL107C 76-89] are 8.5, 271, 33.4, 63 and 72.9.
In the case of NSPPTTPSKDESGP [YMR190C 45-58], the normalised SPOT signal, Boehringer light units (BLU); mean over the file's lines of this peptide in assay [1] was determined as 29.9; in assay [2] it was 293; in assay [3] it was 40.1; in assay [4], 101; in assay [5], 43.4.
In the same order, the values of NWSPNIPLRYSDFA [YOL017W 129-142] are 574, 1410, 189, 3720 and 1070.
In the same order, the values of NRKPAEPTKPNNLD [YML075C 1024-1037] are 96.2, 234, 91.3, 292 and 51.4.
In the same order, the values of NSMPNVPVRLKLHT [YKL208W 152-165] are 2750, 11000, 2480, 20400 and 5300.
For NPPPVPPPRNVTAM [YNL176C 548-561], the normalised SPOT signal, Boehringer light units (BLU); mean over the file's lines of this peptide in assay [1] was determined as 42.3; in assay [2], 12200; in assay [3] it was 1190; in assay [4], 14200; in assay [5], 180.
Regarding NNTPIVPEKFSNDL [YKR004C 249-262], the normalised SPOT signal, Boehringer light units (BLU); mean over the file's lines of this peptide in assay [1] was determined as 27.9; in assay [2], 272; in assay [3], 3.8; in assay [4], 194; in assay [5] it was 69.3.
